In paper PMC5509211:

Biological target: actin filaments (skeletal muscle) (Gallus gallus), P68139
Details: modification not given

Kd: 9.3 µM
B1: mEGFP-Lifeact (peptide)
chain: MGVADLIKKFESISKEE
